Positions count from the first letter of the chain named.
B1: Wild type (Phe87): Cytochrome P450 BM3 (CYP102A1) from Bacillus megaterium, wild type, Phe at position 87 (protein, UniProt P14779 1-1049, looked up)
Bifunctional cytochrome …: MTIKEMPQPKTFGELKNLPLLNTDKPVQALMKIADELGEIFKFEAPGRVTRYLSSQRLIKEACDESRFDKNLSQALKFVRDFAGDGLFTSWTHEKNWKKAHNILLPSFSQQAMKGYHAMMVDIAVQLVQKWERLNADEHIEVPEDMTRLTLDTIGLCGFNYRFNSFYRDQPHPFITSMVRALDEAMNKLQRANPDDPAYDENKRQFQEDIKVMNDLVDKIIADRKASGEQSDDLLTHMLNGKDPETGEPLDDENIRYQIITFLIAGHETTSGLLSFALYFLVKNPHVLQKAAEEAARVLVDPVPSYKQVKQLKYVGMVLNEALRLWPTAPAFSLYAKEDTVLGGEYPLEKGDELMVLIPQLHRDKTIWGDDVEEFRPERFENPSAIPQHAFKPFGNGQRACIGQQFALHEATLVLGMMLKHFDFEDHTNYELDIKETLTLKPEGFVVKAKSKKIPLGGIPSPSTEQSAKKVRKKAENAHNTPLLVLYGSNMGTAEGTARDLADIAMSKGFAPQVATLDSHAGNLPREGAVLIVTASYNGHPPDNAKQFVDWLDQASADEVKGVRYSVFGCGDKNWATTYQKVPAFIDETLAAKGAENIADRGEADASDDFEGTYEEWREHMWSDVAAYFNLDIENSEDNKSTLSLQFVDSAADMPLAKMHGAFSTNVVASKELQQPGSARSTRHLEIELPKEASYQEGDHLGVIPRNYEGIVNRVTARFGLDASQQIRLEAEEEKLAHLPLAKTVSVEELLQYVELQDPVTRTQLRAMAAKTVCPPHKVELEALLEKQAYKEQVLAKRLTMLELLEKYPACEMKFSEFIALLPSIRPRYYSISSSPRVDEKQASITVSVVSGEAWSGYGEYKGIASNYLAELQEGDTITCFISTPQSEFTLPKDPETPLIMVGPGTGVAPFRGFVQARKQLKEQGQSLGEAHLYFGCRSPHEDYLYQEELENAQSEGIITLHTAFSRMPNQPKTYVQHVMEQDGKKLIELLDQGAHFYICGDGSQMAPAVEATLMKSYADVHQVSEADARLWLQQLEEKGRYAKDVWAG

Tests used:
mutant Val87 (M11) = target: T1, mutant Val87 (M11) (Priestia megaterium, UniProt P14779, E144G/E268V/E65G/F82I/F88V/G416S/H286Y/L189Q/R48L/Y199C); assay type: biochemical, Bacillus megaterium; details: 1 μM ketoconazole
T1 sequence (P14779 1-1049 R48L/E65G/F82I/F88V/E144G/L189Q/Y199C/E268V/H286Y/G416S): B1 Bifunctional cytochrome … with R48L, E65G, F82I, F88V, E144G, L189Q, Y199C, E268V, H286Y, G416S

[1] = Alkoxyresorufin-induced NADPH consumption; assay type: biochemical; details: 20 nM enzyme, 200 µM NADPH, 25 °C
[2] = Lauric acid induced NADPH consumption; assay type: biochemical; details: 0.1 mM lauric acid
[3] = Alkoxyresorufin O-dealkylation by CYP102A1 M11 mutants and wild-type CYP102A1; assay type: biochemical; details: 20 µM alkoxyresorufin, 20 nM P450 BM3, 25 °C
[4] = benzyloxyresorufin as the substrate, data not shown

| Molecule | Inhibition of lauric acid induced NADPH consumption (mutant Val87 (M11); 0.1 mM lauric acid) | Inhibition of substrate-induced NADPH consumption (mutant Val87 (M11); [4]) | Inhibition of the O-dealkylation reaction (mutant Val87 (M11); [4]) | Specific activity of NADPH consumption, DMSO ([1]; no substrate, solvent DMSO (2%) only) [nmol NADPH/min/nmol P450] | Specific activity of alkoxyresorufin-induced NADPH consumption, side chain Ethyl ([1]; substrate ethoxyresorufin 20 µM) | Effect of lauric acid on NADPH consumption [2] | Specific activity of alkoxyresorufin O-dealkylation, side chain n-Heptyl ([3]; substrate n-heptoxyresorufin) | Specific activity of alkoxyresorufin O-dealkylation, side chain n-Octyl ([3]; substrate n-octoxyresorufin) |
| --- | --- | --- | --- | --- | --- | --- | --- | --- |
| CC(=O)N1CCN(c2ccc(OCC3COC(Cn4ccnc4)(c4ccc(Cl)cc4Cl)O3)cc2)CC1 (centres unmarked) [ketoconazole] | completely blocked | almost completely block | almost completely block | – | – | – | – | – |
| B1 | – | – | – | 45 | 3,970 nmol NADPH/min/nmol P450 | strongly stimulated | 0.17 nmol resorufin/min/nmol P450 | 0.18 nmol resorufin/min/nmol P450 |
